Test results as given in patent publication US20180155434A1 (UNIVERSITY OF TOYAMA, published 2018).
Residue numbers refer to the chain shown, from its start. Names may count otherwise.

T1: mouse IL-5Rα on Y16 cells (mouse, UniProt P21183 18-415)
T1 construct: whole, on cells; also called IL-5Rα chain; mouse IL-5Rα-expressing cell Y16
T1 sequence (looked up): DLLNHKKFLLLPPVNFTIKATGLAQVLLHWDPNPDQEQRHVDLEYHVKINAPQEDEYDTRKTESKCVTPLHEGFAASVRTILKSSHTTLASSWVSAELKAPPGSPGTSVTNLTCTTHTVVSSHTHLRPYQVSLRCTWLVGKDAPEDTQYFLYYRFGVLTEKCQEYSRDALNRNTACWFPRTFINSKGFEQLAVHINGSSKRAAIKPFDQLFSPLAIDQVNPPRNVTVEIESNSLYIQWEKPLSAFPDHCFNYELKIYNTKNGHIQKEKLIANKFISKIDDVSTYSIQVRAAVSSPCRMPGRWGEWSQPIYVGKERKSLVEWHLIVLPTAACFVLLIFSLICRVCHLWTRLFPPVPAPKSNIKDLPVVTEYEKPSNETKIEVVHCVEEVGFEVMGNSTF

B1: rtDNP-1 hIgG1 (DF) antibody (KM8808) (antibody, V domains shown)
VH: EVQLQESGPGLVKPSQSLSLTCSVTGYSITSGYWNWIRKFPGNKMEWIGYISYSGSTYYNPSLKSRISITRDTSKNQFFLQLNSVTTEDTATYYCARWGVRHYFDYWGQGVMATVSS
VL: DVVMTQTPVSLPVSLGGQASISCRSSQSLANSYGNTYLSWYLQKPGQSPQLLIYRVSNTFSGVPDRFSGSGSGTDFTLKISRVEPEDLGDYYCLQGTHQPYTFGAGTKLELK
notes: Isotype control; Rat anti-DNP variable regions on a human IgG1 constant region, no core fucose; also called core fucose-deficient anti-dinitrophenol (DNP) rat/human chimeric antibody
B2: rtDNP-1 hIgG1 (N297A) antibody (KM6161) (antibody, V domains shown)
VH: B1 VH
VL: B1 VL
notes: Isotype control; Rat anti-DNP variable regions on a human IgG1 constant region with N297A; also called N-linked sugar chain-deficient anti-DNP rat/human chimeric antibody
B3: H7 hIgG1 (DF) (H7-1) (antibody, V domains shown)
VH: EVQLQQSGAELGKPGTSVKLSCKVSGYNIKNTYIHWVNQRPGKGLEWIGRIDPANGNPIYAEKFKNKATLTADTSSNTAYMQLSQLKSDDTAIYFCAMHRGHSMGPGPYVMDAWGQGASVTVSS
VL: DIQMTQSPASLSASLGETVTIECRTSEDIYNGLAWYQQKPGKSPQLLIYNANSLHTGVPSRFSGSGSGTQYSLKINSLQSEDVASYCCQQYSNYPFTFGSGTKLEIK
notes: also called core fucose-deficient H7 chimeric antibody; Potelligent-type H7 chimeric antibody
B4: H7 hIgG1 (N297A) (H7-3) (antibody, V domains shown)
VH: B3 VH
VL: B3 VL
notes: Rat H7 variable regions on a human IgG1 constant region with N297A (EU index), so it lacks the N-linked sugar chain; Human kappa light chain constant region; also called N-linked sugar chain-deficient H7 chimeric antibody
B5: H7 (CS) hIgG1 (N297A) (H7-4) (antibody, V domains shown)
VH: B3 VH
VL: B3 VL with C87S
notes: H7 VL with Cys 87 replaced by Ser. Human IgG1 constant region with N297A (EU index) and human kappa constant region; also called H7 (CS) altered form
B6: H7 (CS) hIgG1 (DF) (H7-2) (antibody, V domains shown)
VH: B3 VH
VL: B3 VL with C87S
notes: Human IgG1 and human kappa constant regions, no core fucose (FUT8-/- CHO); also called Cys substitution variant H7-2; H7 (CS) altered form

These binders were tested against T1, mouse IL-5Rα on Y16 cells (assay: flow cytometry on Y16 cells expressing mouse IL-5R, detection with goat F(ab')2 anti-human IgG PE, Geomean).
Experimental: The chimeric antibodies prepared in Example 8 were evaluated for their antigen binding activity using a mouse-derived cell line Y16 expressing IL-5R. The Y16 cells were washed with SM (staining medium containing 2% FCS, 0.05% NaN₃, and 1 mM EDTA in PBS). Then, Mouse BD Fc Block (manufactured by Becton, Dickinson and Company) was added thereto at a concentration of 5 μg/mL, and the mixture was left standing at 4° C. for 30 min. The cells were inoculated at a cell number of 1×10⁵ cells/well to a 96-well U-bottom plate, and each chimeric antibody adjusted to a final concentration of 10000, 2500, 625, 156, 39, 10, 2.4, or 0.6 ng/mL was added thereto, followed by reaction at 4° C. for 60 min. The rat/human chimeric control antibodies used were rtDNP-1 hIgG1 (DF) antibody (KM8808) and rtDNP-1 hIgG1 (N297A) antibody (KM6161). The nucleotide sequences and amino acid sequences of the variable regions of each isotype control antibody are shown in SEQ ID NOs: 29 to 34. After washing of the cells with SM, Goat F(ab′)₂ Anti-Human IgG PE (γ chain specific) (manufactured by Southern Biotech) diluted 500-fold with SM was added thereto, followed by reaction at 4° C. for 60 min. After washing of the cells with SM, the cells were resuspended in 50 μL of SM. Fluorescence intensity was measured by FCM (flow cytometer FACS Canto II (manufactured by Becton, Dickinson and Company)). The data was analyzed using FlowJo 7.65 (manufactured by Tomy Digital Biology Co., Ltd.) to calculate a Geomean value at each concentration.

Binder	binding result	EC50 (read off the curve) [µg/mL]
B1	no binding (tested: 10 µg/mL)	
B2	no binding (tested: 10 µg/mL)	
B3		~0.06
B4		~0.06
B5		~0.04
B6		~0.04
